Assay results reported in patent US20120192301.

Assays:
[1] = system: SBS 26334 ZFN (engineered); experiment: cell_activity; conditions: Cel-I indels, pair 26323/26334, K562, no donor
[2] = system: SBS 26323 ZFN (engineered); experiment: cell_activity; conditions: Cel-I indels, pair 26323/26334, K562, no donor

Sequence	activity [1]	activity [2]
AACAGGTAAGCTCCATTGTGCTTATATC (double strand) [SNCA site 36 (25358/26334)]	< 45%	
CACACCATGCACCACTCCCTCCTTGGTT (double strand) [SNCA site 37 (26323/26327/26331)]		< 45%
